Laboratory results from US20210380703A1.
Positions count from the first letter of the chain named.

B1: 371_C06 (antibody, V domains shown)
VH: EVQLLESGGGLVQPGGSLRLSCAASGFTFSSYSMNWVRQAPGKGLEWVSSINYNGGYTSYADSVKGRFTISRDNSKNTLYLQMNSLRAEDTAVYYCARGATWHDTHLDYWGQGTLVTVSS
VL: DIQMTQSPSSLSASVGDRVTITCRASQSISSYLNWYQQKPGKAPKLLIYAVTSRASGVPSRFSGSGSGTDFTLTISSLQPEDFATYYCQQSYDLPLTFGGGTKVEIK
B2: 365_A12 (antibody, V domains shown)
VH: B1 VH with S33G, N35H, S49A, S50G, R98K, G99S, T101N
VL: B1 VL with S30L, S31T, L33V, V51A, A55H, D93E, L94N
B3: 365_E09 (antibody, V domains shown)
VH: B1 VH with S33G, N35H, S49A, G55S, T58K, G99S, T101N, H106A
VL: B1 VL with S30L, S31T, L33V, L47V, V51A, Y92D, L94S
B4: 372_E08 (antibody, V domains shown)
VH: B1 VH with S31D, S50N
VL: B1 VL with S30I, S31T, V51A, D93N
B5: 371_E12 (antibody, V domains shown)
VH: B1 VH with S30D, S50G, G55S, T58K
VL: B1 VL with S30L, V51A, R54L, L94T
B6: 365_D12 (antibody, V domains shown)
VH: B1 VH with S30D, S33G, S50N, S59G, G99S, T101N, H106A
VL: B1 VL with S30V, S31T, L47V, V51A, L94T
B7: 376_A07 (antibody, V domains shown)
VH: B1 VH with S50G, T58K
VL: B1 VL with S30L, S31T, V51A, L94S
B8: 371_E09 (antibody, V domains shown)
VH: B1 VH with S31D, S50G, G55S
VL: B1 VL with S30L, S31T, V51A, D93N, L94S
B9: 365_F01 (antibody, V domains shown)
VH: B1 VH with S30D, S50G, G55S, T58K, S59G, G99S, T101N
VL: B1 VL with S30V, L47V, V51A, R54L, D93E
B10: 375_F10 (antibody, V domains shown)
VH: B1 VH with S50G, S59G
VL: B1 VL with S30L, S31T, L47V, V51A, L94T
B11: 373_F07 (antibody, V domains shown)
VH: B1 VH with S50G, G55S, T58K
VL: B1 VL with S30L, V51A, R54L, D93E, L94T
B12: 365_A11 (antibody, V domains shown)
VH: B1 VH with S30D, S31D, S33G, S50G, G55S, G99S, T101N, H106A
VL: B1 VL with S30L, L47V, V51A, R54L, D93E, L94S
B13: 374_G05 (antibody, V domains shown)
VH: B1 VH with S50N, G55S, T58K, S59G
VL: B1 VL with S30I, V51A
B14: 365_B01 (antibody, V domains shown)
VH: B1 VH with S30D, S33G, N35H, S49A, G55S, G99S, T101N, H106A
VL: B1 VL with L33V, L47V, V51A, D93E, L94S
B15: 375_B03 (antibody, V domains shown)
VH: B1 VH with S49A, S50G
VL: B1 VL with S30L, S31T, V51A, L94S
B16: 372_B09 (antibody, V domains shown)
VH: B1 VH with G55S
VL: B1 VL with S30L, S31T, V51A, D93E, L94T
B17: 375_H08 (antibody, V domains shown)
VH: B1 VH with S50G
VL: B1 VL with S30L, S31T, V51A, R54L, L94S
B18: 375_A03 (antibody, V domains shown)
VH: B1 VH with S30D, S49A, S50G
VL: B1 VL with S30L, S31T, V51A, A55H, L94N
B19: 371_E08 (antibody, V domains shown)
VH: B1 VH with S50N, G55S, T58K
VL: B1 VL with S30V, L33V, L47V, V51A, A55H
B20: 365_B07 (antibody, V domains shown)
VH: B1 VH with S33G, N35H, S49A, G55S, G99S, T101N, H106A
VL: B1 VL with S30L, S31T, V51A, D93E, L94N
B21: 365_A03 (antibody, V domains shown)
VH: B1 VH with S49A, S50G, G55S, T58K, S59G, G99S, T101N, H106A
VL: B1 VL with S30L, L47V, L94S
B22: 371_H11 (antibody, V domains shown)
VH: B1 VH with S50G, T58K, S59G
VL: B1 VL with S30L, S31T, V51T, A55H, D93E, L94S
B23: 365_C10 (antibody, V domains shown)
VH: B1 VH with S33G, N35H, S49A, G99S, T101N, H106A
VL: B1 VL with S30L, L33V, V51A, R54L, D93E, L94S
B24: 374_D04 (antibody, V domains shown)
VH: B1 VH with S49A, S50G
VL: B1 VL with S30L, L47V, V51A, A55H, L94T
B25: 365_B06 (antibody, V domains shown)
VH: B1 VH with S30D, S33G, N35H, S50N, T58K, G99S, T101N, H106A
VL: B1 VL with S30L, S31T, L33V, V51T, R54L
B26: 376_A02 (antibody, V domains shown)
VH: B1 VH with S49A, S50G, T58K
VL: B1 VL with S30L, V51A
B27: 365_F12 (antibody, V domains shown)
VH: B1 VH with S31D, S50G, G99S, T101N
VL: B1 VL with S30L, S31T, L33V, L47V, V51A, A55H, D93E, L94T
B28: 371_C07 (antibody, V domains shown)
VH: B1 VH with S30D, S33G, S50N, S59G, H106A
VL: B1 VL with S30L, V51A, R54L, L94T
B29: 374_A05 (antibody, V domains shown)
VH: B1 VH with S31D, S33G, S49A, S50N, T58K, S59G
VL: B1 VL with S30V, S31R, L47V, V51A, R54L, D93E
B30: 373_D06 (antibody, V domains shown)
VH: B1 VH with S49A, S50G
VL: B1 VL with S30V, S31T, V51A, L94T
B31: 374_D09 (antibody, V domains shown)
VH: B1 VH with S30D, S33G, S49A, S50N, T58K, S59G
VL: B1 VL with S30I, L33V, V51A, R54L, L94T
B32: 373_B09 (antibody, V domains shown)
VH: B1 VH with S30D, S50G, T58K
VL: B1 VL with S30L, L47V, V51A, R54L, D93E, L94T
B33: 365_E01 (antibody, V domains shown)
VH: B1 VH with S31D, S50G, G55S, T58K, S59G, G99S, T101N, H106A
VL: B1 VL with S30I, V51A, L94S
B34: 365_C11 (antibody, V domains shown)
VH: B1 VH with S49A, S50G, T58K, G99S, T101N
VL: B1 VL with S30I, S31T, L47V, D93S
B35: 374_H05 (antibody, V domains shown)
VH: B1 VH with S49A, S50G
VL: B1 VL with S30L, L33V, L47V, V51A, L94N
B36: 365_E07 (antibody, V domains shown)
VH: B1 VH with S30D, S33G, N35H, S50G, G55S, R98K, G99S, T101N
VL: B1 VL with S30L, V51A, L94N
B37: 371_G01 (antibody, V domains shown)
VH: B1 VH with S31D, S50N
VL: B1 VL with S30L, S31T, V51A, R54L
B38: 365_B11 (antibody, V domains shown)
VH: B1 VH with S33G, N35H, S49A, S50G, G99S, T101N, H106A
VL: B1 VL with S30I, L47V, V51T, A55H, L94S
B39: 372_H11 (antibody, V domains shown)
VH: B1 VH with S33G, N35H, S49A, S50G
VL: B1 VL with S30L, L33V, V51A, D93E, L94N
B40: 371_F09 (antibody, V domains shown)
VH: B1 VH with S49A, S50G
VL: B1 VL with S30L, S31T, V51A, L94N
B41: 365_E05 (antibody, V domains shown)
VH: B1 VH with S33G, N35H, S49A, S50G, G99S, T101N, H106A
VL: B1 VL with S30V, L33V, V51A, R54L, L94N
B42: 375_C11 (antibody, V domains shown)
VH: B1 VH
VL: B1 VL with S30L, L33V, V51A, A55H, L94T
B43: 374_A04 (antibody, V domains shown)
VH: B1 VH with S49A, S50G
VL: B1 VL with S30L, S31T, L47V, V51A, L94T
B44: 365_C01 (antibody, V domains shown)
VH: B1 VH with S30D, S33G, G55S, T58K, G99S, T101N
VL: B1 VL with S30V, L47V, D93E, L94S
B45: 365_F06 (antibody, V domains shown)
VH: B1 VH with S33G, S49A, S50G, G55S, T58K, G99S, T101N, H106A
VL: B1 VL with S30L, L33V, V51A, Y92D, D93N
B46: 365_D09 (antibody, V domains shown)
VH: B1 VH with S33G, N35H, S50G, G55S, G99S, T101N, H106A
VL: B1 VL with S30L, V51A, Y92D, D93E, L94S
B47: 371_F03 (antibody, V domains shown)
VH: B1 VH with S50G
VL: B1 VL with S30I, S31T, V51A, R54L, A55H, L94N
B48: 365_C12 (antibody, V domains shown)
VH: B1 VH with S33G, S49A, S50G, G55S, T58K, G99S, T101N, H106A
VL: B1 VL with S30V, L33V, L47V, R54L, L94T

Target: Human Fc (human)
Assay: ELISA; negative control

Row | Binder | optical density [OD]
1 | B1 | 0.308
2 | B2 | 0.422
3 | B3 | 0.322
4 | B4 | 0.369
5 | B5 | 0.398
6 | B6 | 0.34
7 | B7 | 0.221
8 | B8 | 0.306
9 | B9 | 0.341
10 | B10 | 0.21
11 | B11 | 0.172
12 | B12 | 0.299
13 | B13 | 0.158
14 | B14 | 0.445
15 | B15 | 0.209
16 | B16 | 0.308
17 | B17 | 0.204
18 | B18 | 0.203
19 | B19 | 0.251
20 | B20 | 0.269
21 | B21 | 0.342
22 | B22 | 0.363
23 | B23 | 0.397
24 | B24 | 0.179

Row | Binder | optical density [OD]
25 | B25 | 0.281
26 | B26 | 0.22
27 | B27 | 0.411
28 | B28 | 0.287
29 | B29 | 0.159
30 | B30 | 0.192
31 | B31 | 0.171
32 | B32 | 0.172
33 | B33 | 0.363
34 | B34 | 0.296
35 | B35 | 0.257
36 | B36 | 0.302
37 | B37 | 0.375
38 | B38 | 0.305
39 | B39 | 0.392
40 | B40 | 0.602
41 | B41 | 0.379
42 | B42 | 0.199
43 | B43 | 0.275
44 | B44 | 0.376
45 | B45 | 0.329
46 | B46 | 0.302
47 | B47 | 0.252
48 | B48 | 0.332
